Measurements as given in publication PMC9482650, “Quantitative fragmentomics allow affinity mapping of interactomes” (Nature Communications, 2022).

T1: APBA3_1, O96018
T1 sequence (O96018 389-490, limits assumed, looked up): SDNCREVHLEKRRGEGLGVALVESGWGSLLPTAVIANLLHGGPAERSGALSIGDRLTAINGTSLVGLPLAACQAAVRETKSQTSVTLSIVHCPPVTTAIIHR

T2: DLG3_3, Q92796
T2 sequence (Q92796 374-475, limits assumed, looked up): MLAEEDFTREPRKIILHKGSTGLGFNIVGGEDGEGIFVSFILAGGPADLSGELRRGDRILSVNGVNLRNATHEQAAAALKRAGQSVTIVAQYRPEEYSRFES

T3: SNTG1, Q9NSN8
T3 sequence (Q9NSN8 52-150, limits assumed, looked up): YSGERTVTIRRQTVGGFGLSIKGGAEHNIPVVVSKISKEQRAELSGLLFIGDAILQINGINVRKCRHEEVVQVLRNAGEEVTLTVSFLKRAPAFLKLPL

T4: PARD3B_1, Q8TEW8
T4 sequence (Q8TEW8 196-299, limits assumed, looked up): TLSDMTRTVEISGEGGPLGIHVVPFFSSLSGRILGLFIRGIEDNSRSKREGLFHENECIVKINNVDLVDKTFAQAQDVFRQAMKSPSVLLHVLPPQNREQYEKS

T5: DFNB31_3, Q9P202
T5 sequence (Q9P202 811-907, limits assumed, looked up): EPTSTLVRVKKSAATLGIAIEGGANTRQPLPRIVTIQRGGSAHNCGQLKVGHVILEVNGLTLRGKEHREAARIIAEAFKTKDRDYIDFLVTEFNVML

T6: HTRA3, P83110
T6 sequence (P83110 354-453, limits assumed, looked up): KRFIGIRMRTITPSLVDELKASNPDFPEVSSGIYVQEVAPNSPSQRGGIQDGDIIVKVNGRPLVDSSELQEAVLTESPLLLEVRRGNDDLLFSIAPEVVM

T7: DLG3_2, Q92796
T7 sequence (Q92796 221-321, limits assumed, looked up): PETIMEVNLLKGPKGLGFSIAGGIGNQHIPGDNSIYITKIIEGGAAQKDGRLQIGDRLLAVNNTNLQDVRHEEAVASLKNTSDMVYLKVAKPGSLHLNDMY

T8: MPP6, Q9NZW5
T8 sequence (Q9NZW5 125-219, limits assumed, looked up): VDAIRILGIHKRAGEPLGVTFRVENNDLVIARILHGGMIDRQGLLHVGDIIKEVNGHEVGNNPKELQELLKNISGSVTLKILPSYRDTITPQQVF

T9: SNTA1, Q13424
T9 sequence (Q13424 82-180, limits assumed, looked up): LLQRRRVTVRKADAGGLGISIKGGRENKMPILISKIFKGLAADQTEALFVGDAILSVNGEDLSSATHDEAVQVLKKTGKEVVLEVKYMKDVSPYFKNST

T10: APBA2_1, Q99767
T10 sequence (Q99767 563-664, limits assumed, looked up): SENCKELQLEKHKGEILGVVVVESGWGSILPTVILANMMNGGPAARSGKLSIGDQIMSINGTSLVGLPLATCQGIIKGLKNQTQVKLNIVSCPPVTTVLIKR

T11: DFNB31_2, Q9P202
T11 sequence (Q9P202 274-371, limits assumed, looked up): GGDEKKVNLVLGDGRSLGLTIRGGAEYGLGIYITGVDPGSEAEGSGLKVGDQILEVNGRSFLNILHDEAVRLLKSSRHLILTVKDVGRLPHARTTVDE


Columns and labels:
Assay in all cases: holdup assay
Parameters in all cases: key: below the threshold = too weak to quantify, mostly under pKd 3.1 to 4
Conditions in all cases: plain residues with an end cap or a label only (N-terminal biotin on a linker: ado-ado)
[1] = target: HTRA1, Q92743
Chain of HTRA1, Q92743 (Q92743 360-477): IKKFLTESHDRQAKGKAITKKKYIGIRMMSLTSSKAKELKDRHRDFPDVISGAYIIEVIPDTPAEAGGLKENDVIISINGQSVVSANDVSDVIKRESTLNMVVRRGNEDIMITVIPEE

[2] = target: T1, APBA3_1, O96018
[3] = target: MAGI2_4, Q86UL8
Chain of MAGI2_4, Q86UL8 (Q86UL8 772-865): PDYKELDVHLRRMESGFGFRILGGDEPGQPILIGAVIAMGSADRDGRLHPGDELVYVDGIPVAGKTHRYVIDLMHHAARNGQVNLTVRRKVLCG

[4] = target: LNX1_2, Q8TBB1
Chain of LNX1_2, Q8TBB1 (Q8TBB1 371-470): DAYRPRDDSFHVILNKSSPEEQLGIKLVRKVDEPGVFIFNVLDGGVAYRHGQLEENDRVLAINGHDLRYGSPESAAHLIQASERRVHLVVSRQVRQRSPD

[5] = target: T2, DLG3_3, Q92796
[6] = target: NHERF2_2, Q15599
Chain of NHERF2_2, Q15599 (Q15599 142-238): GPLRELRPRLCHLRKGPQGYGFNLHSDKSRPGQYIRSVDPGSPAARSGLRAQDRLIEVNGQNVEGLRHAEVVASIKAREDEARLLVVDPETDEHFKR

[7] = target: T3, SNTG1, Q9NSN8
[8] = target: T4, PARD3B_1, Q8TEW8
[9] = target: T5, DFNB31_3, Q9P202
[10] = target: IL16_4, Q14005
Chain of IL16_4, Q14005 (Q14005 1229-1329): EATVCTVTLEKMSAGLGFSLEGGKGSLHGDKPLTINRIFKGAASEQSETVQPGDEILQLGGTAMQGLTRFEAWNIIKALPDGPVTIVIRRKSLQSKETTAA

[11] = target: GRIP2_5, Q9C0E4
Chain of GRIP2_5, Q9C0E4 (Q9C0E4 544-642): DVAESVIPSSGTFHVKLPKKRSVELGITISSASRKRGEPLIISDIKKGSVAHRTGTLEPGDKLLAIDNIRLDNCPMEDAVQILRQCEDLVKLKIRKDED

[12] = target: Inadl_6, Q8NI35
Chain of Inadl_6, Q8NI35 (Q8NI35 1058-1167): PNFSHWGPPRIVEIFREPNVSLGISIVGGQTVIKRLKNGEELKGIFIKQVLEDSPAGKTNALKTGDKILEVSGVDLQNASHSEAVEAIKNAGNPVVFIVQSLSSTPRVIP

[13] = target: T6, HTRA3, P83110
[14] = target: T7, DLG3_2, Q92796
[15] = target: Inadl_9, Q8NI35
Chain of Inadl_9, Q8NI35 (Q8NI35 1530-1615): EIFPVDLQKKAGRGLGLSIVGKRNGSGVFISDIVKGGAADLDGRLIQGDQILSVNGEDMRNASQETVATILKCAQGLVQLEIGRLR

[16] = target: IL16_1, Q14005
Chain of IL16_1, Q14005 (Q14005 210-306): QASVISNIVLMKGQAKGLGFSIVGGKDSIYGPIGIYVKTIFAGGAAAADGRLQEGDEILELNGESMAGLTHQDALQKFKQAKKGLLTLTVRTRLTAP

[17] = target: MAST1, Q9Y2H9
Chain of MAST1, Q9Y2H9 (Q9Y2H9 962-1065): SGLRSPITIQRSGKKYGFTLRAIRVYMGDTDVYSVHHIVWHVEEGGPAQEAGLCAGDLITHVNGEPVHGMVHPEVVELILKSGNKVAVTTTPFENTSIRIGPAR

[18] = target: T8, MPP6, Q9NZW5
[19] = target: LAP2, Q96RT1
Chain of LAP2, Q96RT1 (Q96RT1 other isoform, or with tags, fused parts or gaps): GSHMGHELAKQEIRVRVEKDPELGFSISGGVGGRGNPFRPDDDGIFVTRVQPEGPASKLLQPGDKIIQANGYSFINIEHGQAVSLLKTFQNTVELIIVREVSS

[20] = target: GRASP, Q7Z6J2
Chain of GRASP, Q7Z6J2 (Q7Z6J2 96-193): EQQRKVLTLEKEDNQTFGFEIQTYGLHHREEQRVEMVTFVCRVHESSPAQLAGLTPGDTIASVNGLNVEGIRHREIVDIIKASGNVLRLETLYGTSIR

[21] = target: SCRIB_1, Q14160
Chain of SCRIB_1, Q14160 (Q14160 718-814): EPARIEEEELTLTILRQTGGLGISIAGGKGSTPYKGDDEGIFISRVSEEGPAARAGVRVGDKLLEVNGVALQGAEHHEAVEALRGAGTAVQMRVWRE

[22] = target: T9, SNTA1, Q13424
[23] = target: Inadl_2, Q8NI35
Chain of Inadl_2, Q8NI35 (Q8NI35 238-335): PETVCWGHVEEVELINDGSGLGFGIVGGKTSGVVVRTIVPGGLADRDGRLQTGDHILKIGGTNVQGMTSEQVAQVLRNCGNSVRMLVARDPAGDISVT

[24] = target: T10, APBA2_1, Q99767
[25] = target: DLG4_3, P78352
Chain of DLG4_3, P78352 (P78352 306-403): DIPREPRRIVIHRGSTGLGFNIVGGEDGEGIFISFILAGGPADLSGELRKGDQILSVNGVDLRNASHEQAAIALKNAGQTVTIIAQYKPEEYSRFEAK

[26] = target: T11, DFNB31_2, Q9P202

Row | Binder | pKd [1] | pKd [2] | pKd [3] | pKd [4] | pKd [5] | pKd [6] | pKd [7] | pKd [8] | pKd [9] | pKd [10] | pKd [11] | pKd [12] | pKd [13] | pKd [14] | pKd [15] | pKd [16] | pKd [17] | pKd [18] | pKd [19] | pKd [20] | other results
1 | QLSFNTDTLC [ABCA2, Q9BZC7] | 4.11 | below the threshold | 4.17 | below the threshold | below the threshold | 3.59 | below the threshold | 3.67 | below the threshold | below the threshold | below the threshold | below the threshold | 4.26 | 4.26 | below the threshold | 3.58 | 4.16 | below the threshold | below the threshold | below the threshold | pKd [21]: below the threshold; pKd [22]: below the threshold; pKd [23]: below the threshold; pKd [24]: below the threshold; pKd [25]: below the threshold; pKd [26]: below the threshold
2 | EDLEDEWEVI [TECPR2, O15040] | 5.29 | below the threshold | below the threshold | below the threshold | below the threshold | below the threshold | below the threshold | 4.3 | 3.76 | below the threshold | below the threshold | below the threshold | 4.12 | 4.09 | below the threshold | below the threshold | 3.68 | below the threshold | below the threshold | below the threshold | pKd [21]: below the threshold; pKd [22]: below the threshold; pKd [23]: below the threshold; pKd [24]: below the threshold; pKd [25]: below the threshold; pKd [26]: below the threshold
